The values that follow come from patent US5495006A, “Antiviral polynucleotide conjugates” (Allelix Biopharmaceuticals, Inc., priority 1993, dated 1996).

The test system of data set [1] is HIV-1 Tat-derived peptide RKKRRQRRRPPQGS (Human immunodeficiency virus 1). Kind of data set: EMSA.
Another data set deals with HSV-1. Kind of data set: Plaque reduction assay, HSV-1 in Vero cells. In kind it is cell-based, herpes simplex virus type I. The following applies: for % Inhibition (plaque reduction, HSV-1 replication): Vero cells, estimation. The method, then:
Specifically, monolayers of cells were pretreated by incubation with one of conjugates (III) and (IV), infected with various concentrations of HSV-1 (measured by plaque forming units, PFU) and the infected cells were then incubated in the presence of conjugate. Following incubation with the conjugate, the cells were stained using the conventional crystal violet staining method. Those portions of the cell monolayer appearing as clear, unstained areas were identified as dead, virally-infected cells (i.e. plaques), while those areas stained purple indicated viable cells. Thus, inhibition of the virus was determined by counting, using a dissecting microscope, the number of plaques. The number of plaques on a plate incubated in the presence of conjugate was compared to the number of plaques on a control plate incubated in the absence of conjugate and the extent of viral inhibition was thus determined.
Vero cells (African green monkey kidney cells, ATCC CCL 81) were seeded into a 96-well plate at a concentration of 2×10^4 cells per well in 50 μl of Dulbecco's modified eagle medium (DMEM, Gibco). The media was supplemented with 10% Nu-serum (Biomedical Products), penicillin (100 IU/ml), streptomycin ([…]) and gentamicin (0.02 mg/ml) obtained from Gibco. The cells were pretreated with polynucleotide conjugate (III) at concentrations of 1 μM and 10 μM by incubation for 24 hours at 37° C. and 5% CO2. Following the incubation, the culture medium was removed from the cells. […]
The media was removed from the cells and the cells were subsequently stained with crystal violet in 70% ethanol:formalin:acetic acid (20:2:1) solution and heat fixed. The average number of plaques per well of each test sample were counted using a dissecting microscope (10-40× magnification). Inhibition was determined as the difference between the number of plaques in the control sample (0 μM conjugate) and the number of plaques in the test sample. […]

The target of data set [2] is T1, HIV-1 Tat full-length (86 aa) (Human immunodeficiency virus 1, UniProt P04608 P04608:1-86). Kind of data set: EMSA; binds efficiently. The following applies: tags: American Bio-Technologies, Inc; label: 32P; cyclic dumbbell with UCU bulge.
In data set [3] the target is T2, HIV-1 Tat-derived peptide RKKRRQRRRPPQGS (Human immunodeficiency virus 1).
T2 chain: RKKRRQRRRPPQGS
Kind of data set: EMSA; Tm 61 C; SEQ 2 in the listing appears to be printed 3'-5'. The following applies: protein: synthetic; tags: synthetic peptide, American Peptide Co; HIV LAI isolate; label: 5'-32P; bottom-linked duplex with UCU bulge.

Data set [4] deals with T2, HIV-1 Tat-derived peptide RKKRRQRRRPPQGS
Kind of data set: EMSA; 38.3% active RNA. The following applies: protein: synthetic; tags: synthetic peptide, American Peptide Co; HIV LAI isolate; label: 5'-32P; linker-bridged hairpin with UCU bulge.

Data set [5] shares this target. Kind of data set: EMSA; Tm 60 C. The following applies: protein: synthetic; tags: synthetic peptide, American Peptide Co; HIV LAI isolate; label: 5'-32P; linker-bridged hairpin.
Data set [6] has as its target T1, HIV-1 Tat full-length (86 aa). Kind of data set: EMSA; pre-formed complex used for competition. The following applies: tags: American Bio-Technologies, Inc; label: 5'-32P; hairpin with UCU bulge and 6-nt loop.
Data set [7] addresses T2, HIV-1 Tat-derived peptide RKKRRQRRRPPQGS
Kind of data set: EMSA; 10 mM Tris pH 7.5, 50 mM NaCl, 1 mM DTT, 1 mM EDTA, 23 C; 45.9% active RNA. The following applies: protein: synthetic; tags: synthetic peptide, American Peptide Co; HIV LAI isolate; label: 5'-32P; hairpin with UCU bulge and 6-nt loop.

Data set [8] shares this target. Kind of data set: EMSA; 17.8% active RNA. The following applies: protein: synthetic; tags: synthetic peptide, American Peptide Co; HIV LAI isolate; label: 5'-32P; linker-bridged hairpin with UCU bulge.
Data set [9] shares this target. Kind of data set: EMSA; 40.1% active RNA. The following applies: protein: synthetic; tags: synthetic peptide, American Peptide Co; HIV LAI isolate; label: 5'-32P; linker-bridged hairpin with UCU bulge.
Data set [10] shares this target. Kind of data set: EMSA; binds efficiently. The following applies: protein: synthetic; tags: synthetic peptide, American Peptide Co; HIV LAI isolate; label: 32P; cyclic dumbbell with UCU bulge.

Take “GGAGAUCUGAGCGCUCUCUCC [TAR conjugate 5D]”: the Kd in data set [1] (linker D (hexaethylene glycol) replaces 6-nt loop between the two strands, 56.0% active RNA) is 0.66 nM.
For the molecule “GGAGAUCUGAGCGCUCUCUCC [TAR conjugate 5B]”, the dissociation constant Kd in data set [1] (linker B (triethylene glycol) replaces 6-nt loop between the two strands, 42.6% active RNA) came out at 0.95 nM.
Take “conjugate (III): 22-deoxyribonucleotide fully hybridized ICP4 DNA-binding site (SEQ ID NOS 6 and 7), strands joined by linker LA HO--(CH2)9--OH (chain 1 CGCTATCGTCCATACCGACCAC; chain 2 GTGGTCGGTATGGACGATAGCG; DNA, backbone not given here; strands joined by nonanediol linker)”: the “% Inhibition (plaque reduction, HSV-1 replication)” value with HSV-1 (1 μM conjugate) is 25%; with HSV-1 (10 μM conjugate), 50%. The “Inhibition of HSV-1 (in words)” value in the data set on HSV-1 (plaque reduction assay) is listed as “inhibit HSV-1”.

B1: cyclic TAR conjugate oligomer 15 (ssRNA)
RNA: GGAGAUCUGAGCGCUCUCUCC
modifications: cyclic 21-mer, linker D at top and bottom of duplex
On to B1, for which the binding result in data set [2] is recorded as “binds”.

B2: TAR conjugate oligomer 9 (ssRNA)
RNA: GCUCUCUCCGGAGAUCUGAGC
modifications: chemical linker at bottom of duplex between the two strands
On to B2, for which binding in [3] was put at a Kd of 2.2 nM.

B3: TAR conjugate 5BB (ssRNA)
RNA: GGAGAUCUGAGCGCUCUCUCC
modifications: two coupled linkers B replace 6-nt loop between the two strands
B3: in [4], the affinity, expressed as Kd, was 1.13 nM.

B4: TAR conjugate structure 8 (ssRNA)
RNA: GGAGAUGAGCGCUCUCUCC
modifications: bulge UCU replaced by U-Lc-Lc (two C3 linkers between nt 6 and nt 9); loop closure shown only in structure drawing
For the molecule B4, the Kd in data set [5] stood at 0.51 nM.

B5: TAR 27-mer (oligomer 4) (ssRNA)
RNA: GGAGAUCUGAGCCUGGGAGCUCUCUCC
B5: the binding result in data set [6] is reported as “binds”. Further, in data set [7], binding was characterised by a dissociation constant (Kd) of 0.41 nM.

B6: TAR conjugate 5CC (ssRNA)
RNA: GGAGAUCUGAGCGCUCUCUCC
modifications: two coupled linkers C replace 6-nt loop between the two strands
For the molecule B6, the dissociation constant (Kd) in data set [8] is 0.43 nM.

B7: TAR conjugate 5A (ssRNA)
RNA: GGAGAUCUGAGCGCUCUCUCC
modifications: linker A -O-(CH2)9-O- replaces 6-nt loop between the two strands
B7 displayed a Kd in [9] of 0.71 nM.

B8: cyclic TAR 31-mer (oligomer 13) (ssRNA)
RNA: UCUCCUUCGGGAGAUCUGAGCCUGGGAGCUC
modifications: cyclic (T4 RNA ligase closed)
Take B8: the binding result in [2] and in data set [10] was “binds” throughout.
